From publication PMC9477738, “PIF4 enhances DNA binding of CDF2 to co-regulate target gene expression and promote Arabidopsis hypocotyl cell elongation” (Nature Plants, 2022)
Substitutions are numbered along the chain they refer to.

Molecular target: the molecule itself
Assay: SEC; gel filtration of a single MBP fusion protein (self-association); HiLoad 200, 25 mM Bis-Tris pH 8.0, 150 mM NaCl

B1: MBP-PIF4^bHLH (bHLH DNA-binding domain of PIF4 fused to N-terminal maltose binding protein) (domain or fragment, Arabidopsis thaliana, UniProt Q8W2F3 248-317, looked up)
chain: QRSGSNRRSRAAEVHNLSERRRRDRINERMKALQELIPHCSKTDKASILDEAIDYLKSLQLQLQVMWMGS
notes: codon-optimised for E. coli; also called PIF4 bHLH domain; PIF4^bHLH WT; source: E. coli ArcticExpress, purified (Ni-NTA, size-exclusion chromatography); not shown: MBP, N-terminal, kept
In the case of B1, the “stoichiometry N” value is reported as 4.

B2: MBP-PIF4^(bHLH (Mu3)) (PIF4 bHLH domain mutated in Interface 3 and Interface 4) (domain or fragment, Arabidopsis thaliana, UniProt Q8W2F3 248-317, looked up)
chain: B1 chain with E28A, R29A, K31A, Q34A, E35A, Q64A, W67A
notes: source: E. coli ArcticExpress, purified (Ni-NTA, size-exclusion chromatography); not shown: MBP, N-terminal, kept
With B2 the “stoichiometry N” value was 2.
